Values belong to the molecule of their own block, whether it stands above or below them.
B3: GST-mRXRα(DE) (pGEX2T-mRXRα(DE), amino acids 205-467) (receptor, mouse, UniProt P28700 205-467, looked up)
chain: MKREAVQEERQRGKDRNENEVESTSSANEDMPVEKILEAELAVEPKTETYVEANMGLNPSSPNDPVTNICQAADKQLFTLVEWAKRIPHFSELPLDDQVILLRAGWNELLIASFSHRSIAVKDGILLATGLHVHRNSAHSAGVGAIFDRVLTELVSKMRDMQMDKTELGCLRAIVLFNPDSKGLSNPAEVEALREKVYASLEAYCKHKYPEQPGRFAKLLLRLPALRSIGLKCLEHLFFFKLIGDTPIDTFLMEMLEAPHQAT
notes: range 205-467; also called GST-RXR; GST-RXRα(DE); not shown: glutathione-S-transferase (GST) of pGEX2T (Pharmacia)

Assays:
GAL4 reporter = assay: GAL4 DBD-TIF2 fusion CAT reporter transactivation assay; format: cell-based; details: Cos-1 and/or HeLa cells
Description: (a) HeLa cells were cotransfected with 1 μg (17m)5-βG-CAT and 10 μg GAL(1-147) or 1,3 and 10 μg GAL(1-147)-TIF2.1, respectively.
(c) Analysis of the transcriptional activity of GAL-TIF2 fusion proteins. Cos-1 and HeLa cells were transfected with 3 lag of plasmids expressing different regions of TIF2 fised to the DNA-binding domain of the yeast transcription factor GALA together with 1 μg of the (7m)5-G-CAT reporterplasmid. CAT assays were performed as described (Bocquel, M. T. et al., Nucl Acids Res. 17:2581-2595 (1989)). Quantitative data on CAT reporter expression were obtained either by phosphoimager analysis (BAS2000, Fuji) of ^14C-labeled CAT reaction products separated by thin-layer chromatography, or using the CAT ELISA Kit (Boehringer Mannheim). In all cases, CAT activities were normalized to the β-galactosidase concentrations resulting from cotransfection of 1 μg of pCMVPGal (gift from T. Lerouge) as internal control. Fold inductions above the GAL4 DBD value are indicated. The mean and standard deviation of at least three experiments are shown. A representative Western blot, illustrating the expression levels of the GAL4-TIF2 fusion proteins, expressed from 10 μg of the corresponding expression vectors, is shown on the left.
(b) Transcriptional activation of TIF2 AF-1 mutants. Cos-1 and HeLa cells were cotransfected with 3 μg of plasmids expressing different mutants of the TIF2 AF-1 fused to the DNA-binding domain of the yeast transcription factor GAL4 together with 1 μg of the (17m)5-G-CAT reporter plasmid. Fold inductions above the activation seen with the GAL4 DBD alone are indicated. The values represent the mean of at least three experiments.
(a) Transcriptional activation by TIF2.13 and TIF2.13 mutants. Cos-1 and HeLa cells were cotransfected with 3 μg of plasmids expressing the TIF2.13 region and the indicated TIF2.13 mutants fused to the DNA-binding domain of the yeast transcription factor GALA together with 1 μg of the (17m)5-G-CAT reporter plasmid. Fold inductions above the GAL4 DBD 1-fold value are indicated. The mean and standard deviation obtained from at least four experiments are shown. The expression levels of the GAL4-TIF2.13 fusion proteins were confirmed by western blotting (data not shown).
Transient transfections of HeLa and Cos-1 cells were performed as described (Gronemeyer et al., (1987); Bocquel, M. T. et al., Nucl. Acids Res. 17:2581-2595 (1989)).

ER, RARα and RXRα LBDs = assay: GST pull-down of TIF2 polypeptides with NR LBDs; format: binding; details: in vitro, with or without 10^−6 M ligand
Description: (b) Mapping of the nuclear receptor-interacting domain of TIF2.
(c-d) Interaction of TIF2 NID mutants with NRs in vitro. […] For quantification of point mutant interactions, see below.
(e-f) Effect of TIF2 NID point mutations on stimulation of NR AF-2 activity. Cos-1 cells were cotransfected with 1 μg of the (17m)5-TATA-CAT reporter, 0.2 μg of GAL-hERα(EF) or GAL-mRXRα(DE), and 2.5 μg of the TIF2.1 wildtype or mutated fragments, as indicated. […] Each bar represents the mean value obtained from at least three (interaction) or at least four (transactivation) experiments, respectively; standard deviations are indicated. Note that the absolute values for TIF2.1 wildtype activity varied by ±16% when cotransfected with GAL-hERα(EF) and by ±34% when cotransfected with GAL-mRXRα(DE). In the in-vitro-interaction assays, the affinity of the TIF2.1 wildtype standard varied by less than ±25%. Expression levels of TIF2 mutants in the cells were verified by Western blot (not shown) with mouse monoclonal antibody 3Ti3F1, which is directed against an epitope outside the mutated area.
To further delineate the TIF2 NR interaction domain (NID), we studied the interaction between a series of TIF2 deletion mutants and the ER or RARα LBDs, using GST-fusion protein-based in vitro assays. In both cases, an NWD was mapped to the central region of TIF2 (amino acids 624-869 in mutant TIF2.5; see FIGS. 7a and b). No additional NWD could be identified in the N- or C-termini of TIF2 (FIGS. 7a and b; mutants TIF2.0, TIF2.2 and TIF2.7). Note that, in contrast, SRC-1, a paralogue of TIF2, apparently harbours two distinct non-contiguous NIDs located in the central and C-terminal regions (Onate, S. A. et al., Science 270:1354-1357 (1995), Yao, T. P. et al., Proc. Natl. Acad. Sci. USA 93:10626-10631 (1996); Zhu, Y. et al., Gene Epression 6:185-195 (1996)).

[1] = molecular target: T1, TIF2.1 (TIF2 amino acids 624 to 1287) (human, UniProt Q15596 624-1287); assay: Far-Western blot with 32P-labelled NR LBD probe, agonist present
T1 construct: Form without a stated tag: expression-library clone, expressed in Cos cells from pSG5, or in-vitro-translated; also called cytoplasmic TIF2.1 polypeptide
T1 sequence: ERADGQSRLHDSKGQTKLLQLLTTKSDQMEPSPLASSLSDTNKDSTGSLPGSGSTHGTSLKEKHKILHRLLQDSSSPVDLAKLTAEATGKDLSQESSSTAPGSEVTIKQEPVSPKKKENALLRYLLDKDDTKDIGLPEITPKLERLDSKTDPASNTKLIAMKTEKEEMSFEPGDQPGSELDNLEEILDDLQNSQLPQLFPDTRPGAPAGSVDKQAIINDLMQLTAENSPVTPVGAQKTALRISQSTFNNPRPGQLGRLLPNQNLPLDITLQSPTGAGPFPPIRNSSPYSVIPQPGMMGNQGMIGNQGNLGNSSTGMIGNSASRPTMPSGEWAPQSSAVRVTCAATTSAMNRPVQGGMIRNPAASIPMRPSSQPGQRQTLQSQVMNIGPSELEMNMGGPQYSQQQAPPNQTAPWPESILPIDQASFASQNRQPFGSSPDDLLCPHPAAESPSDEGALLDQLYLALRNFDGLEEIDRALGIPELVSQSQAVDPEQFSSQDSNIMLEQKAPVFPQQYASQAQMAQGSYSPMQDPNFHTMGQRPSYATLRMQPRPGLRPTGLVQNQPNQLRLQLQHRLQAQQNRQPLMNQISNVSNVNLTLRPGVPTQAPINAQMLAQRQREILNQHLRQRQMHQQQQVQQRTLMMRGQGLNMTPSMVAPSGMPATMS

[2] = molecular target: B3; assay: in vitro GST interaction of TIF2.1 point mutants, with ligand, relative to TIF2.1 wild type
[3] = molecular target: T2, GST-hRARα(DEF) (pGEX2T-hRARα(DEF), amino acids 153-462) (human, UniProt P10276 153-462); assay: as above
T2 construct: range 153-462; Bacterially produced; also called GST-RAR; GST-RARα(DEF); not shown: glutathione-S-transferase (GST) of pGEX2T (Pharmacia)
T2 sequence (looked up): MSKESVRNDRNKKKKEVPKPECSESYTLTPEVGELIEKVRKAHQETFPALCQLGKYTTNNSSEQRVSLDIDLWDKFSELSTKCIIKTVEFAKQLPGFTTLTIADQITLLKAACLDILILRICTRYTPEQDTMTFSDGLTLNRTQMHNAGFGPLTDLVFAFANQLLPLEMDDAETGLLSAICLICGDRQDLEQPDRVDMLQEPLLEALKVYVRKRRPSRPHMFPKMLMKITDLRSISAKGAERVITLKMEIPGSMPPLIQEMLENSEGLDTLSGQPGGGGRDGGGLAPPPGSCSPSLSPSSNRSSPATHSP

B1: TIF2.18: TIF2.13 with removal of 20 N-terminal amino acid residues (protein, UniProt Q15596 1031-1122, looked up, fragment)
chain: NQTAPWPESILPIDQASFASQNRQPFGSSPDDLLCPHPAAESPSDEGALLDQLYLALRNFDGLEEIDRALGIPELVSQSQAVDPEQFSSQDS
transcriptional activation of GAL4 reporter by GAL4 DBD fusion (GAL4 reporter): reduced transcriptional activity only weakly

B2: TIF2.34: TIF2.5 C-terminally truncated to Pro775 (protein)
chain: MKLLSSIEQACDICRLKKLKCSKEKPKCAKCLKNNWECRYSPKTKRSPLTRAHLTEVESRLERLEQLFLLIFPREDLDMILKMDSLQDIKALLTGLFVQDNVNKDAVTDRLASVETDMPLTLRQHRISATSSSEESSNKGQRQLTVSERADGQSRLHDSKGQTKLLQLLTTKSDQMEPSPLASSLSDTNKDSTGSLPGSGSTHGTSLKEKHKILHRLLQDSSSPVDLAKLTAEATGKDLSQESSSTAPGSEVTIKQEPVSPKKKENALLRYLLDKDDTKDIGLPEITPKLERLDSKTDP
binding to NRs (ER, RARα LBDs) (ER, RARα and RXRα LBDs): interacted with ER and RARα LBDs in a ligand-dependent manner

Molecule: B3
binding result [1]: binds

times less efficient in NR interaction than the wild-type TIF2 [2]: 20 times less efficient than wild type
times less efficient in NR interaction than the wild-type TIF2 [3]: 20 times less efficient than wild type
B4: TIF2.1 m12 (LL→AA in NR box motifs I and II) (other)
chain: ERADGQSRLHDSKGQTKLLQAATTKSDQMEPSPLASSLSDTNKDSTGSLPGSGSTHGTSLKEKHKILHRAAQDSSSPVDLAKLTAEATGKDLSQESSSTAPGSEVTIKQEPVSPKKKENALLRYLLDKDDTKDIGLPEITPKLERLDSKTDPASNTKLIAMKTEKEEMSFEPGDQPGSELDNLEEILDDLQNSQLPQLFPDTRPGAPAGSVDKQAIINDLMQLTAENSPVTPVGAQKTALRISQSTFNNPRPGQLGRLLPNQNLPLDITLQSPTGAGPFPPIRNSSPYSVIPQPGMMGNQGMIGNQGNLGNSSTGMIGNSASRPTMPSGEWAPQSSAVRVTCAATTSAMNRPVQGGMIRNPAASIPMRPSSQPGQRQTLQSQVMNIGPSELEMNMGGPQYSQQQAPPNQTAPWPESILPIDQASFASQNRQPFGSSPDDLLCPHPAAESPSDEGALLDQLYLALRNFDGLEEIDRALGIPELVSQSQAVDPEQFSSQDSNIMLEQKAPVFPQQYASQAQMAQGSYSPMQDPNFHTMGQRPSYATLRMQPRPGLRPTGLVQNQPNQLRLQLQHRLQAQQNRQPLMNQISNVSNVNLTLRPGVPTQAPINAQMLAQRQREILNQHLRQRQMHQQQQVQQRTLMMRGQGLNMTPSMVAPSGMPATMS
notes: also called single intact NR box III

B5: TIF2.15: TIF2.13 with removal of 26 C-terminal amino acid residues (protein, UniProt Q15596 1011-1096, looked up, fragment)
chain: PSELEMNMGGPQYSQQQAPPNQTAPWPESILPIDQASFASQNRQPFGSSPDDLLCPHPAAESPSDEGALLDQLYLALRNFDGLEEI
transcriptional activation of GAL4 reporter by GAL4 DBD fusion (GAL4 reporter): reduced transcriptional activity only weakly

Source: patent publication US6861508B2, “Transcriptional intermediary factor-2” (Institut National de la Sante et de la Recherche Medicale, priority 1996, dated 2005)
